The target of one experiment is T1, K55E.
T1 construct: also called HH-ST2L (ST2L-D1D2) variant K55E
T1 receptor fragment (Domains I and II): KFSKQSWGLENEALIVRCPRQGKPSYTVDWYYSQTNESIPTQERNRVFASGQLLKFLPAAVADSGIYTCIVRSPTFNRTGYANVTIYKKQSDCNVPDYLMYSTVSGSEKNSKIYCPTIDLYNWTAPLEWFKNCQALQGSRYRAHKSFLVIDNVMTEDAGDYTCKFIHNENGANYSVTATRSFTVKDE
Description: SPR, ProteOn XPR36, 25 C; mAb captured on anti-Fc surface, ST2L-D1D2 (HH-ST2L) variant injected; 1:1 model. The protocol: (§1) Binding studies were performed using the ProteOn XPR36 Protein Interaction Array system (Bio-Rad) (Bravman T, et al. Anal Biochem 358:281-288, 2006). […] Individual anti-ST2L mAb was then captured by flowing (1 μg/mL) antibody solution prepared in PBS containing 0.5% Nonidet P-40 and 0.5% Na-deoxycholate). The signal in the surfaces reached ˜250 resonance units (RU, 1 RU=1 pg protein/mm²) in the anti-Fc-coated surfaces, confirming that these antibodies specifically capture anti-ST2L mAbs. After 90° rotation of the fluid system, wild type of ST2L-D1D2 or variant proteins (0.5 mg/mL in PBS containing 0.5% Nonidet P-40 and 0.5% Na-deoxycholate) was injected in the parallel flow channels. All of these assays were performed at 25° C. The ST2L-D1D2-dependent signals on the surfaces were obtained by double referencing, subtracting the response observed on surfaces immobilizing the antibodies alone, and the signal observed injecting the vehicle alone (which allows correction for binding-independent responses). The resulting sensorgrams were fitted by the simplest 1:1 interaction model (ProteOn analysis software), to obtain the corresponding association and dissociation rate constants (kₐ and kd).
(In general: Surface plasmon resonance follows binding to a sensor surface in real time, without labels.)

The next experiment deals with T2, A80E.
T2 construct: also called HH-ST2L (ST2L-D1D2) variant A80E
T2 receptor fragment (Domains I and II): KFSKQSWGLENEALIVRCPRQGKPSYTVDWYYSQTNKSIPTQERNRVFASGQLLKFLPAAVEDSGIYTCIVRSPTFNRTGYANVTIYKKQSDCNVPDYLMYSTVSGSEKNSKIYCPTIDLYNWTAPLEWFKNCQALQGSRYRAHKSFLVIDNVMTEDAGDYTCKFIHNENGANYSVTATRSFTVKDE
The description is as above. On the procedure: as §1

The target in a further experiment is T3, 108QSD110-->PPS.
T3 receptor fragment (Domains I and II): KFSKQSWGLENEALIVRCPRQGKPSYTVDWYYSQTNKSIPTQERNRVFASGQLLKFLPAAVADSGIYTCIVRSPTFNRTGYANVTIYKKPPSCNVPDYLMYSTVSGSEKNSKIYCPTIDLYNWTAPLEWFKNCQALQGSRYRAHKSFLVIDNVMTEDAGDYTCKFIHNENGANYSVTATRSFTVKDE
Described as above. The protocol: as §1

The next experiment addresses T4, A78R.
T4 construct: also called HH-ST2L (ST2L-D1D2) variant A78R
T4 receptor fragment (Domains I and II): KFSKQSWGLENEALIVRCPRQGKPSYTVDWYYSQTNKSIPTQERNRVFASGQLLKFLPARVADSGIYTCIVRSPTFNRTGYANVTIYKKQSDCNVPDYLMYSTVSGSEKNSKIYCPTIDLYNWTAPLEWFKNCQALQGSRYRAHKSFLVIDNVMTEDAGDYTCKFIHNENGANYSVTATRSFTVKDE
Described as above. The protocol: as §1

The target in experiment [1] is T5, HH-ST2L variant 93NL94 (substitution 93TF94 to 93NL94) (human, UniProt Q01638 19-205).
T5 chain: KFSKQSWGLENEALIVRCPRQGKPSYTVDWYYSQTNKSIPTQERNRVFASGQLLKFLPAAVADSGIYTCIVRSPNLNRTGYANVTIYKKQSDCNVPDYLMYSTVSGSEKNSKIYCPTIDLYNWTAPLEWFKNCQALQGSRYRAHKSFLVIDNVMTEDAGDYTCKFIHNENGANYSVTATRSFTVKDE
The experiment is described as above. The protocol: as §1

Another experiment has as its target T6, 69GQL71-->RDR.
T6 construct: also called HH-ST2L (ST2L-D1D2) variant with 69GQL71 changed to RDR
T6 receptor fragment (Domains I and II): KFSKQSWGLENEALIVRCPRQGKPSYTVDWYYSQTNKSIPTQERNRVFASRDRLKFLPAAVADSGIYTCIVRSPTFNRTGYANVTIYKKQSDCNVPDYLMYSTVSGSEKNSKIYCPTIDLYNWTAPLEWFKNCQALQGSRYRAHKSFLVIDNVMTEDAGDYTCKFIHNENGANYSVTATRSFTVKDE
Described as above. On the procedure:
as §1

For another experiment, the target named is T7, E61K.
T7 construct: also called HH-ST2L (ST2L-D1D2) variant E61K
T7 receptor fragment (Domains I and II): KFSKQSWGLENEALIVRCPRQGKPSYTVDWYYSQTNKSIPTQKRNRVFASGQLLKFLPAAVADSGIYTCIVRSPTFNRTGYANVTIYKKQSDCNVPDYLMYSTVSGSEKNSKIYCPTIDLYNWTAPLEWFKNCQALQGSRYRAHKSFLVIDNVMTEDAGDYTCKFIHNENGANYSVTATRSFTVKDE
Described as above. The protocol: as §1

Experiment [2] has as its target T5, HH-ST2L variant 93NL94 (substitution …). Description: ProteOn SPR, mAb captured by anti-Fc, ST2L-D1D2 variant injected. The protocol:
as §1
Residue numbering is according to full length human ST2L of SEQ ID NO: 1.

B1: STLM208 (antibody, V domains shown)
VH: EVQLLESGGGLVQPGGSLRLSCAASGFTFSIYDMIWVRQAPGKGLEWVSSIRGEGGGTYYADSVKGRFTISRDNSKNTLYLQMNSLRAEDTAVYYCARDPWSTEGSFFVLDYWGQGTLVTVSS
VL: EIVLTQSPATLSLSPGERATLSCRASQSVDDDLAWYQQKPGQAPRLLIYDASNRATGIPARFSGSGSGTDFTLTISSLEPEDFAVYYCQQYITAPLTFGQGTKVEIK
notes: frameworks VH3-23 / Vk-L6
One may read the Kd as the equilibrium constant for the complex coming apart. A higher Kd goes with lower affinity. Usually koff stands for a measure of how fast the partners let go of each other. The term kon denotes a measure of how fast the partners come together. Turning to B1, the Kd with K55E was 0.01 nM; with A80E it was 0.011 nM; with 108QSD110-->PPS it was 0.01 nM; in the experiment with A78R, 0.0104 nM; with 69GQL71-->RDR it was 0.0096 nM; with E61K it was 0.0081 nM. Also, in experiment [2], the Kd was approximately 0.0495 nM. Besides, the koff in the experiment with K55E turned out to be 0.000129 s⁻¹; with A80E, 0.000127 s⁻¹; with 108QSD110-->PPS, 0.000119 s⁻¹; in the experiment with A78R it was 0.00013 s⁻¹; in experiment [1], 0.000625 s⁻¹; with 69GQL71-->RDR, 9.27e-05 s⁻¹. In the experiment with E61K, this molecule registered a koff of 0.000126 s⁻¹. The kon with K55E came out at 1.26e+07 M⁻¹ s⁻¹; with A80E, 1.15e+07 M⁻¹ s⁻¹; in the experiment with 108QSD110-->PPS it was 1.28e+07 M⁻¹ s⁻¹; with A78R, 1.24e+07 M⁻¹ s⁻¹; in experiment [1] it was 1.27e+07 M⁻¹ s⁻¹; with 69GQL71-->RDR, 1.02e+07 M⁻¹ s⁻¹. The on-rate (kon) with E61K was determined as 1.55e+07 M⁻¹ s⁻¹. In addition, in experiment [2], the “fold reduction of binding affinity against wild type ST2L-D1D2” value was approximately 5 fold.
